Test results: US20030109481, “Tumour-cell specific gene expression and its use in cancer therapy” (published 2003)

Experiments:
Details in all cases: tags: baculovirus-expressed
[1] = target: T1, E2F-1/DP1 heterodimer (UniProt Q01094;Q14186 Q01094:1-437,Q14186:1-410); assay: EMSA
[2] = target: T1, E2F-1/DP1 heterodimer; assay: EMSA; mutation abolishes binding; promoter activity reduced at least 2-fold but not activation by E2F-1
[3] = target: T1, E2F-1/DP1 heterodimer; assay: EMSA; stated as similar results to first mutation
[4] = target: T1, E2F-1/DP1 heterodimer; assay: EMSA; mutation abolished E2F-1 binding; promoter activity reduced about 2-fold and E2F-1 activation suppressed

T1 sequence (Q01094 whole entry, chain 1 of 2): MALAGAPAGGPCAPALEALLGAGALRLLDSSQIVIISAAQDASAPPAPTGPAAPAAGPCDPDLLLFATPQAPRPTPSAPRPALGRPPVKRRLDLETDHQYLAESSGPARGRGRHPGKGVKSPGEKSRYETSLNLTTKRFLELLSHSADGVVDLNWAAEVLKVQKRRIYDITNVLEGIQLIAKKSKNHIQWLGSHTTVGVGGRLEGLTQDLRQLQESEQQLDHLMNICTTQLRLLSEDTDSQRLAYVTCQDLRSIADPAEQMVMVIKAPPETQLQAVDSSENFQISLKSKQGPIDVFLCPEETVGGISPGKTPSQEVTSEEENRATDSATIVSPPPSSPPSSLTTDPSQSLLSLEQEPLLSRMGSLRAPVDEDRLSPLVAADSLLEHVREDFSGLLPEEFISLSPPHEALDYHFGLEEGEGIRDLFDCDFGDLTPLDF
T1 sequence (Q14186 whole entry, chain 2 of 2): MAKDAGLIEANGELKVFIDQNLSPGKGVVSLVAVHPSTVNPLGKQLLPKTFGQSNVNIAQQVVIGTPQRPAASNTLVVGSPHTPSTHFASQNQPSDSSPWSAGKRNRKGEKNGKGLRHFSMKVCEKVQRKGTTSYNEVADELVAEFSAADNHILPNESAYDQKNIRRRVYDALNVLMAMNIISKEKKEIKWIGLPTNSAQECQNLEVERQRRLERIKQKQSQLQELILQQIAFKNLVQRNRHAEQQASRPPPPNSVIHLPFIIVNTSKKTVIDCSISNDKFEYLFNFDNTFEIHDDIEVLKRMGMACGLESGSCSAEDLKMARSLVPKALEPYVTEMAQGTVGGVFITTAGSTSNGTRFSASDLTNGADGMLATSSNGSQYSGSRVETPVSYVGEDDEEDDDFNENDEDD

B1: Skp2 promoter region 1 (dsDNA)
DNA 1: GCTCCGGGAAAA
DNA 2: TTTTCCCGGAGC
[1]
  binding result: no binding

B2: Skp2 promoter region 2 (dsDNA)
DNA 1: AATCCCGCCCGGCGCCGCAGG
DNA 2: CCTGCGGCGCCGGGCGGGATT
[1]
  binding result: binds

B3: region 2 mutant 1 (dsDNA)
DNA 1: AATCCCACCCGGCACCTCAGG
DNA 2: CCTGAGGTGCCGGGTGGGATT
[2]
  binding result: no binding

B4: region 2 mutant 2 (dsDNA)
DNA 1: AATCCATCCCGGCACCTCAGG
DNA 2: CCTGAGGTGCCGGGATGGATT
[3]
  binding result: no binding

B5: region 2 mutant 3 (dsDNA)
DNA 1: AATCCCGCCCGGATCCGCAGG
DNA 2: CCTGCGGATCCGGGCGGGATT
[3]
  binding result: no binding

B6: region 2 mutant 4 (dsDNA)
DNA 1: AATCCCGCCCGGCGCATCAGG
DNA 2: CCTGATGCGCCGGGCGGGATT
[3]
  binding result: no binding

B7: Skp2 promoter region 3 (dsDNA)
DNA 1: AGAGCGGGATGCAGAACTCCGCGCGCGCGGTGG
DNA 2: CCACCGCGCGCGCGGAGTTCTGCATCCCGCTCT
[1]
  binding result: binds

B8: region 3 mutant (dsDNA)
DNA 1: AGAGCATGCAGAACTCCGCACGAGCGGTGG
DNA 2: CCACCGCTCGTGCGGAGTTCTGCATGCTCT
[4]
  binding result: no binding

B9: Skp2 promoter region 4 (dsDNA)
DNA 1: AGTTCGCGGGTCC
DNA 2: GGACCCGCGAACT
[1]
  binding result: binds
